Article PMC7884072, “Development of antibody-dependent cell cytotoxicity function in HIV-1 antibodies” (eLife, 2021)

Experiments:
Conditions in all cases: both partners purified
[1] = biological target: T1, gp41 ectodomain (HIV strain C.ZA.1197MB) (HIV-1 strain C.ZA.1197MB); assay: BLI; Octet RED; mAb (8 µg/mL) captured on anti-human IgG Fc biosensors (ligand); monomeric gp41 ectodomain or gp120 as analyte in a series of up to six two-fold dilutions; 30°C; 1X PBS, 0.1% BSA, 0.005% Tween-20, 0.02% sodium azide; association 180 s, dissociation 180 s; double referencing; 1:1 model
T1 construct: gp41 ectodomain of HIV-1 Env, strain C.ZA.1197MB (clade C); Called monomeric in the legends; also called monomeric C.ZA.1197MB gp41 ectodomain; clade C gp41 ectodomain; source: bought: Immune Technology Corp
T1 chain: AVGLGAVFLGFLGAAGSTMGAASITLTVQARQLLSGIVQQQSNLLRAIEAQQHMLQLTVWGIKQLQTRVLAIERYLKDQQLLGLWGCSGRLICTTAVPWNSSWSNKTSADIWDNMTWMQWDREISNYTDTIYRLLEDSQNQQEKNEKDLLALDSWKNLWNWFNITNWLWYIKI

[2] = biological target: T2, gp120 (HIV strain BL035.W6M.C1) (HIV-1 strain BL035.W6M.C1); assay: BLI; mAb lineage members captured on anti-human IgG Fc biosensors (ligand); monomeric gp41 ectodomain or BL035.W6M.C1 gp120 as analyte at 62.5 nM
T2 construct: gp120, the surface subunit cut from HIV-1 Env gp160, strain BL035.W6M.C1 (clade A); Called monomeric in the legends; also called monomeric BL035.W6M.C1 gp120; monomeric gp120; source: bought: Immune Technology Corp

[3] = biological target: T2, gp120 (HIV strain BL035.W6M.C1); assay: BLI; 157-lineage naive antibodies as ligand; monomeric BL035 gp120 as analyte at 250 nM; without the double reference approach

B1: 072-0VH0VK (antibody, V domains shown)
VH: QVQLVQSGAEVKKPGSSVKVSCKASGGTFSSYAISWVRQAPGQGLEWMGGIIPILGIANYAQKFQGRVTITADESTSTAYMELSSLRSEDTAVYYCARHYDDSSGFFYGAFDIWGQGTTLTVSS
VL: DIQMTQSPSSLSASVGDRVTITCRASQGISNYLAWYQQKPGKVPKLLIYAASTLQSGVPSRFSGSGSGTDFTLTISSLQPEDVATYYCQKYNSAPWTFGQGTKVEIK
notes: 072-0VH, inferred naive heavy chain variable region (VH 1-69*11, DH 4-17*01, JH 3*02); 072-0VK, inferred naive kappa variable region (VK 1-27*01, JK 1*01); Whole human IgG1, kappa (Igγ1 vector Addgene 80795, Igκ vector Addgene 80796); also called 072 lineage inferred naive mAb; inferred naive precursor of the 072 lineage; source: HEK 293F, co-transfected, purified (protein G)
[1]
  Kd: 34.4 nM

B2: 105-1VH1VK (antibody, V domains shown)
VH: EVQLVESGGGLVKPGGSLRLSCAASGFSFTNAYMSWVRQAPGKGLEWVGRIKSKADDGTTDYAAPVKGRFTISRDDSKNTLYLQMNSLKTEDTAVYYCTTGVMIANQDSYYYMDVWGKGTTVAVSS
VL: not shown
notes: Whole human IgG1, kappa; source: HEK 293F, co-transfected, purified (protein G)
[2]
  binding result: binds

B3: 157-0VHAVK (antibody, V domains shown)
VH: QVQLVQSGAEVKKPGSSVKVSCKASGGTFSSYAISWVRQAPGQGLEWMGGIIPILGIANYAQKFQGRVTITADESTSTAYMELSSLRSEDTAVYYCARGKVSSSDWFQPIYYYYMDVWGGGTTVTVSS
VL: EIVMTQSPATLSVSPGERATLSCRASQSISSYLAWYQQKPGQAPRLLIYDASNRATGIPARFSGSGSGTDFTLTISSLEPEDFAVYYCQQRSNSLPFGQGTRLEIK
notes: as for B2
[3]
  binding result: no binding (tested: 250 nM)
